Article PMC11905138

Legend:
Conditions in all cases: reference: Flag-PKM2 wild type; sites Y105
IQGAP1 [1] = target: IQGAP1 (UniProt P46940); test: anti-Flag IP, LC-MS/MS
IQGAP1 [2] = target: IQGAP1 (UniProt P46940); test: anti-Flag co-IP, IQGAP1 blot
TSG101 = TSG101 (UniProt Q99816); test: anti-Flag co-IP, TSG101 blot

binding against the reference (IQGAP1 [1]): lost | binding against the reference (IQGAP1 [2]): lost | binding against the reference (TSG101): lost
Substance: PKM2 (pyruvate kinase M2) (from UniProt P14618) Flag-PKM2 Y105F
